Experimental findings from patent US20230406884A1 (ZEALAND PHARMA A S, published 2023) are described below.

*1 amine or outer side, *2 acyl side, *3 side chain or, on linkers, in order; H or OH if unused. Bridges are numbered along the chain shown (N, C = ends). Where no end group is shown, it is not given here. [ ]: non-standard residue; d: D form. formula (I) linker = non-peptide linker -N(R1)-C(R2)(R3)-C(R4)(R5)- (R1 H, R2 H, R3 CH3, R4 H, R5 C(O)NH-tBu), its N is acylated by the C-terminal carbonyl and its C(R4)(R5) carbon is bonded to the N-terminal N; X3 = 3‑aminomethyl‑4‑(4-(1-piperazinyl)phenyl)benzoic acid, O=C(c1ccc(-c2ccc(N3CCN([*:3])CC3)cc2)c(CN[*:1])c1)[*:2]; Thr(OMe) = O-methyl-threonine, CO[C@H](C)[C@H](N[*:1])C(=O)[*:2]; dPhe(4-CH2NH2) = NCc1ccc(C[C@@H](N)C(=O)O)cc1; Phe(4-CH2NH2) = NCc1ccc(C[C@H](N)C(=O)O)cc1; Hyp = O=C(O)[C@@H]1C[C@@H](O)CN1; d(β3hK) = NCCCC[C@@H](N)CC(=O)O; β3hK = NCCCC[C@H](N)CC(=O)O

Broadly, the IC50 is the concentration at which inhibition is half-maximal. In general, EC50 refers to the concentration giving half of the maximal effect. Higher therefore signals lower potency in that assay.

The target in test [1] is T1, recombinant integrin α4β1 (R&D Systems, 5397-A3-050) (UniProt P13612 34-970; P05556 21-728).
T1 construct: bought; coated on the ELISA plate; also called a4b1; α4β1 integrin
T1 sequence (P13612 34-970, chain 1 of 2): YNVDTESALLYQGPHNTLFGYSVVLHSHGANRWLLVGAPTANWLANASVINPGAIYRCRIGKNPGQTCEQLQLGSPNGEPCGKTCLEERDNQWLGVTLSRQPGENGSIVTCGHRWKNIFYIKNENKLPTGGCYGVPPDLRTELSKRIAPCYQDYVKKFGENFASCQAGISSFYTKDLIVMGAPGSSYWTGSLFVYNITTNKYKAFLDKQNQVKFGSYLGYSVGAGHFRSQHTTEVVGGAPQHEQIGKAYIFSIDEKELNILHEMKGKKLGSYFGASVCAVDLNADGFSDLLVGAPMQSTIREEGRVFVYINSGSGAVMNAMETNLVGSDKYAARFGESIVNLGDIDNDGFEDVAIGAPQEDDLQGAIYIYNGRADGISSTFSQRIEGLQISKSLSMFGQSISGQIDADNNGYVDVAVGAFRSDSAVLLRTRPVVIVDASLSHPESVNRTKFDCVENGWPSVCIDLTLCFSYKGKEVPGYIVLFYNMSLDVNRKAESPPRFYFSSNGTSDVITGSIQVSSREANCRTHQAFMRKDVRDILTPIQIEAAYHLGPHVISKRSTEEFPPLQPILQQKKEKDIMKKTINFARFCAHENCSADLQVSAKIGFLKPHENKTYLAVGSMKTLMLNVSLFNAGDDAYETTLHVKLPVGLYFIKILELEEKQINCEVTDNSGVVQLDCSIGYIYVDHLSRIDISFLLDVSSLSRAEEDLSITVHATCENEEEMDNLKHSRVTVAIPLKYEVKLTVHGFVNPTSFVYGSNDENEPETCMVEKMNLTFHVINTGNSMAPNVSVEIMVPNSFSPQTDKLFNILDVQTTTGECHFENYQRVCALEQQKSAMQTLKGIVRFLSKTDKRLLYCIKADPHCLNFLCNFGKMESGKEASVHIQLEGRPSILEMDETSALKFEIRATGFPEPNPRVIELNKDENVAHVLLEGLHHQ
T1 sequence (P05556 21-728, chain 2 of 2): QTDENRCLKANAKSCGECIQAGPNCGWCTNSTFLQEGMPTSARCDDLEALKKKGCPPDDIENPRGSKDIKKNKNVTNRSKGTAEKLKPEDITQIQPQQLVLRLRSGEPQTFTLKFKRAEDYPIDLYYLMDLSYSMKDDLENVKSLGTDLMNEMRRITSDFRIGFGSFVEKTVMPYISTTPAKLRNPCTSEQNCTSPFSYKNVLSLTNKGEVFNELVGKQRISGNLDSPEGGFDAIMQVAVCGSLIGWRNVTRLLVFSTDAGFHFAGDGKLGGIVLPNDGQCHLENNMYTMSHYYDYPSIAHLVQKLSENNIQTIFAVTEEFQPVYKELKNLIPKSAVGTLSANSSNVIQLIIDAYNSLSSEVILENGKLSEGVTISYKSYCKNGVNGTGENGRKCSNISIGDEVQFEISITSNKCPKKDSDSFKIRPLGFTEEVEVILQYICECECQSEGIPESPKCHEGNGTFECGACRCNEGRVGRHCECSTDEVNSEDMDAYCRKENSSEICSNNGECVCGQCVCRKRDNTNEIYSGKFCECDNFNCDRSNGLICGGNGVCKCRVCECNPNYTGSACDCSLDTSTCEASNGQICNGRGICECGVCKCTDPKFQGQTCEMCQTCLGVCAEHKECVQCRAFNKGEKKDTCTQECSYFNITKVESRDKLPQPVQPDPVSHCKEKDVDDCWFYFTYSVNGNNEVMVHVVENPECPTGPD
Nature of the test: IC50 on α4β1 / IC50 on α4β7. As for the experimental part: (§1) The plate was incubated at 4° C. overnight. […] The plate was then incubated for 1 hour at room temperature. The plate was washed three times with wash buffer (50 mM Tris, 100 mM NaCl, 1 mM MnCl₂, 0.05% Tween). To each well, 50 μl of compound diluted in assay buffer was added by transfer from a compound serial dilution plate. […] The plate was incubated at room temperature with shaking (300 rpm) for 2 hours to reach binding equilibrium. Then the plate was washed three times in wash buffer and 100 μl anti-human IgG Fc specific-HRP (Abcam, Ab97225) diluted at 1:2000 in assay buffer was added to each well. The plate was incubated at room temperature for 1 hour under agitation.
(§2) The plate was incubated at 4° C. overnight. […] The plate was then incubated for 1 hour at room temperature. The plate was washed three times with wash buffer (50 mM Tris, 100 mM NaCl, 1 mM MnCl₂, 0.05% Tween). To each well, 50 μl of compound diluted in assay buffer was added by transfer from a compound serial dilution plate. […] The plate was incubated at room temperature with shaking (300 rpm) for 2 hours to reach binding equilibrium.

The target of test [2] is T1, recombinant integrin α4β1 (R&D Systems, …). Nature of the test: competition ELISA, VCAM-Fc on coated α4β1. As for the experimental part: as §1
(In general: In an ELISA, binding on a coated surface is turned into a signal by an enzyme label.)

Test [3] addresses T2, recombinant integrin α4β7 (R&D Systems, 5397-A3-050) (UniProt P13612 34-970; P26010 20-723).
T2 construct: bought; coated on the ELISA plate; also called a4b7; α4β7 integrin
Description: competition ELISA, MAdCAM-Fc on coated α4β7. As for the experimental part: as §1
T2 sequence (P13612 34-970, chain 1 of 2): as the sequence (P13612 34-970, chain 1 of 2) above
T2 sequence (P26010 20-723, chain 2 of 2): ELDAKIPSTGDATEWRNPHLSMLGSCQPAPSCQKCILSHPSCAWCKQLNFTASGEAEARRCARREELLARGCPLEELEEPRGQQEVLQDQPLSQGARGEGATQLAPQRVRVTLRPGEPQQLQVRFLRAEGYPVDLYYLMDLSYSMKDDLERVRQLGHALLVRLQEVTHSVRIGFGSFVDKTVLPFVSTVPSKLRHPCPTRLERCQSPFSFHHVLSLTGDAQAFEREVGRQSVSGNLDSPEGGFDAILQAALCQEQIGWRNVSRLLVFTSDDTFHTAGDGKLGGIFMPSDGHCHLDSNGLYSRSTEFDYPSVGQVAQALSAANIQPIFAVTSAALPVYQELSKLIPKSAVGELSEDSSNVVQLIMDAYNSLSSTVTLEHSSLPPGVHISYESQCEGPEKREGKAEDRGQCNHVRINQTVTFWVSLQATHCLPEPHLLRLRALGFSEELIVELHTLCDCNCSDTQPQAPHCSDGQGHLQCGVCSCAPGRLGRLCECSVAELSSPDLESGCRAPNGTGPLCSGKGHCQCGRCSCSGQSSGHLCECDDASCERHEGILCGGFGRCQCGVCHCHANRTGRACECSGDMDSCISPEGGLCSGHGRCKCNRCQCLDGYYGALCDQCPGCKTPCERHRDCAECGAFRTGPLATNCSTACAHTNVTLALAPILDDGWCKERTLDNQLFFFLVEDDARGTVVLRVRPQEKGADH

The target in test [4] is integrin α4β7 on RPMI8866 human cells (human, UniProt P13612 34-1032; P26010 20-798). Nature of the test: cell-based or functional assay.
Chain of integrin α4β7 on RPMI8866 human cells (P13612 34-1032, chain 1 of 2): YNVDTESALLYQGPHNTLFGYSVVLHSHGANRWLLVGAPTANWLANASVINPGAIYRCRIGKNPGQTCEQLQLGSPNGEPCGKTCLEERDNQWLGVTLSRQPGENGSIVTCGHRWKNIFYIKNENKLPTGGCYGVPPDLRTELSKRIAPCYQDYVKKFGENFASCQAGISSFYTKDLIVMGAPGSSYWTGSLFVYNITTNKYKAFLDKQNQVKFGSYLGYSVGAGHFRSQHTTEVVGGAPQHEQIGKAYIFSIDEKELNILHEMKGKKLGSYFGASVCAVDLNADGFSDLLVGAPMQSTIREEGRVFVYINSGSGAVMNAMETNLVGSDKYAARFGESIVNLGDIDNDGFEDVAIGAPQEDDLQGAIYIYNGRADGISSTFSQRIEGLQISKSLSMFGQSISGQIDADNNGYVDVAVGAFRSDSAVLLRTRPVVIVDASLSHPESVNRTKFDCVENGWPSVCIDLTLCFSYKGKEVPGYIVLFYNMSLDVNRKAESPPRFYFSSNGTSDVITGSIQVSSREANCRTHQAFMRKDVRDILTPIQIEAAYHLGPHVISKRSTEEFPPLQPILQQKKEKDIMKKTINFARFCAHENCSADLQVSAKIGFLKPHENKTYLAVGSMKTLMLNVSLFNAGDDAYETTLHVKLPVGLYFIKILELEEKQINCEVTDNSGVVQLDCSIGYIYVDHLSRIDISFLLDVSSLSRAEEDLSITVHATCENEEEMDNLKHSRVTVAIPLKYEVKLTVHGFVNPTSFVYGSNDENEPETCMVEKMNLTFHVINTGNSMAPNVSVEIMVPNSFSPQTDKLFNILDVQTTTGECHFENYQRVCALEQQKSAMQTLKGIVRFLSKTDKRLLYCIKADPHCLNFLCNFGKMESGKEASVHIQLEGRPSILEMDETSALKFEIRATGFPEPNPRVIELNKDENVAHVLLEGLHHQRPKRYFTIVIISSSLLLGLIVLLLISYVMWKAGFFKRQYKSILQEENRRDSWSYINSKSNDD
Chain of integrin α4β7 on RPMI8866 human cells (P26010 20-798, chain 2 of 2): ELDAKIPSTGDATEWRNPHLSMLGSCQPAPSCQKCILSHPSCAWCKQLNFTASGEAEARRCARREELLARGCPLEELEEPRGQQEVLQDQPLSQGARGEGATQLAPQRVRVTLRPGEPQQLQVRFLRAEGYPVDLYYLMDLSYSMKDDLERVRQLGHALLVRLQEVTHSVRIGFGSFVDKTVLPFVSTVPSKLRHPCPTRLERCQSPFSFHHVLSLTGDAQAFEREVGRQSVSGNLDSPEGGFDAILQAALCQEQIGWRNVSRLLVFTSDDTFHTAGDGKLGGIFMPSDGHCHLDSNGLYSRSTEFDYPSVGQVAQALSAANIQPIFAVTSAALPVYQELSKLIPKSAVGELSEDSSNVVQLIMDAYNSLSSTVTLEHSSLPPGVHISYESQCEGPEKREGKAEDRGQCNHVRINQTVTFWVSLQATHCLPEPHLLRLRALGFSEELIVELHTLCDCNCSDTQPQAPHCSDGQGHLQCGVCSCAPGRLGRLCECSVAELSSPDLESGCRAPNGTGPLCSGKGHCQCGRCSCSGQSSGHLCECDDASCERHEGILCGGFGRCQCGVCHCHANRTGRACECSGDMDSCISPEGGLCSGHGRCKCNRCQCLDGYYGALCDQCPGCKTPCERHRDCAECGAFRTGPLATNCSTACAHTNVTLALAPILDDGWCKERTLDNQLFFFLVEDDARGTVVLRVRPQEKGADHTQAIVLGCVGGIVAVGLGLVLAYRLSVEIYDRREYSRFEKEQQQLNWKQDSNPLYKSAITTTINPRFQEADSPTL
The target in test [5] is T3, integrin α4β7 on human cells (human, UniProt P13612 34-1032; P26010 20-798). Description: cell-based or functional assay.
T3 sequence (P13612 34-1032, chain 1 of 2): as the sequence (P13612 34-1032, chain 1 of 2) above
T3 sequence (P26010 20-798, chain 2 of 2): as the sequence (P26010 20-798, chain 2 of 2) above
The target of test [6] is T4, integrin α4β1 on human cells (human, UniProt P13612 34-1032; P05556 21-798).
T4 construct: whole, on cells; also called a4b1
Description: VCAM-1 competition, FACS on α4β7-negative Th memory cells, human whole blood.

In test [7] the target is T3, integrin α4β7 on human cells. Nature of the test: competition with a saturating amount of MAdCAM, flow cytometry on α4β7+ Th memory cells in human whole blood. (In general: In flow cytometry, cells or beads pass a laser one at a time.)
Description: Cells were washed with 1 mL stain buffer-FBS (BD Biosciences) and resuspended in 100 μl stain Buffer-FBS (BD Biosciences) containing 4 mM MnCl₂. […] Cells were then washed with 1 mL stain buffer-FBS and resuspended in 100 μl stain buffer-FBS. The cells were incubated in the dark for 30 minutes at room temperature with 1 ul Streptavidin APC (Biolegend 0.2 mg/ml) and a panel of antibodies for the detection of memory T helper a4b7-positive cells subset. And amount of 5.0 ul each of the following antibodies were used; CD45 FITC (BioLegend 200 ug/ml), CD29 APC Cy7 (BioLegend 100 ug/ml), Integrin beta7 PE, (BioLegend concentration 50 μg/mL), CD49d V421 (BioLegend 50 μg/mL), CD3 V510 (BioLegend 30 μg/mL), CD4 PECy7 (BioLegend 100 μg/mL), CD45RO PerCP, BioLegend 200 μg/mL). The cells were then washed with stain-buffer-FBS and resuspended in 150 microL stain buffer-FBS for acquisition on the flow cytometer (BD FACSCanto™ flow cytometer and BDFACSDiva™ software). FACS data was acquire by electronic gating on the basis of forward versus side scatter, The cytometer was set to collect 20,000 events in each tube. Cell population were determined using the following markers, CD45+, CD3+, CD4+, CD45RO+, CD49d+, integrin b7, biotinylated ligands.
Test [8] concerns the target T5, recombinant integrin α4β1 (R&D Systems, 5397-A3-050 [sic]) (UniProt P13612 34-970; P05556 21-728).
T5 construct: coated on the ELISA plate at 0.5 µg/ml; the printed catalogue number is the same as for α4β7; also called a4b1; α4β1 integrin
Description: α4β1-VCAM-1 competition ELISA. As for the experimental part:
as §1

The target in test [9] is T6, recombinant integrin α4β7 (R&D Systems, 5397-A3-050) (UniProt P13612 34-970; P26010 20-723).
T6 construct: coated on the ELISA plate at 1 µg/ml; also called a4b7; α4β7 integrin
Description: α4β7-MAdCAM-1 competition ELISA. The protocol: as §1
T6 sequence (P13612 34-970, chain 1 of 2): as the sequence (P13612 34-970, chain 1 of 2) above
T6 sequence (P26010 20-723, chain 2 of 2): as the sequence (P26010 20-723, chain 2 of 2) above

Test [10] has as its target T5, recombinant integrin α4β1 (R&D Systems, …). Description: ratio of ELISA IC50s, α4β1 over α4β7. As for the experimental part: as §1, §2

T5 sequence (P13612 34-970, chain 1 of 2): as the sequence (P13612 34-970, chain 1 of 2) above
T5 sequence (P05556 21-728, chain 2 of 2): as the sequence (P05556 21-728, chain 2 of 2) above

B1: Compound No. 40 (peptide)
peptide: PFLD[Thr(OMe)]
modifications: bridge N-C; not fully specified (bridges); printed as Pro Phe Leu Asp X
notes: macrocycle of formula (I); R1 H, R2 H, R3 CH3, R4 H, R5 C(O)-NH-tert-Butyl
B1: in test [1], the “ELISA Assay Ratio b1/b7” value was 1.9. Besides, the IC50 was found to be 119 nM in test [2] and 63 nM in [3].

As to [Hyp]FLDT (linker N-C via formula (I) linker) [Compound No. 32], the “RPMI8866 Adhesion a4b7/MAdCAM IC50” value in [4] was found to be 11200 nM.

B2: Compound No. 517 (peptide)
peptide: P[X3]LDT
modifications: bridge (positions not given here); not fully specified (residue 2, bridges); also: homodimer: diphenic acid diamide on piperazine N of X2 joins two copies
notes: also called ET3764; ET03764
Regarding B2, the “IC50 in the RPM18866 cell adhesion assay” value in [5] worked out at 9.9 nM. Besides, in [6], the half-maximal inhibitory concentration (IC50) turned out to be 600 nM. Moreover, the response in test [7] was half-maximal at 38 nM (EC50).

Take PYXXDT (X^z dPip; X^1 tertbutylAla, macrocycle of formula (I)) [Compound No. 150]: the IC50 came to 447 nM in test [8] and 54 nM in test [9]. The “ELISA Assay Ratio b1/b7” value in test [10] was 8.2.

On to PF[d(β3hK)]LDI (bridge N-C; not fully specified (bridges); printed as Pro Phe X Leu Asp Ile, macrocycle of formula (I)) [Compound No. 220], for which the half-inhibitory concentration (IC50) in [8] turned out to be 1740 nM; in test [9], 96 nM. In addition, in [10], the “ELISA Assay Ratio b1/b7” value is 18.2.

B3: Compound No. 231 (peptide)
peptide: PR[β3hK]LDT
modifications: bridge N-C; not fully specified (bridges); also: macrocycle closed by non-peptide linker -NH-CH(CH3)-CH(C(O)NH-tBu)- between Pro1 N and C-terminal C
notes: macrocycle of formula (I)
Turning to B3, in test [8], the IC50 was determined as 993 nM.

In the case of P[Phe(4-CH2NH2)][β3hK]LDI (bridge N-C; not fully specified (bridges); printed as Pro X1 X2 Leu Asp Ile, macrocycle of formula (I)) [Compound No. 215], the IC50 in [8] turned out to be 413 nM; in test [9], 33 nM.

B4: Compound No. 253 (peptide)
peptide: cyclo(P[dPhe(4-CH2NH2)][β3hK]LDI)
modifications: also: macrocycle closed by non-peptide linker -NH-CH(CH3)-CH(C(O)NH-tBu)- between Pro1 N and C-terminal C
notes: macrocycle of formula (I)
On to B4, for which the results for the IC50 in [8] and in [9] were 1090 nM and 69 nM, respectively.

B5: Compound No. 254 (peptide)
peptide: cyclo(P[Phe(4-CH2NH2)][β3hK]LDV)
modifications: also: macrocycle closed by non-peptide linker -NH-CH(CH3)-CH(C(O)NH-tBu)- between Pro1 N and C-terminal C
notes: macrocycle of formula (I)
Turning to B5, the IC50 in test [8] came out at 1800 nM; in test [9] it was 55 nM. The “ELISA Assay Ratio b1/b7” value in test [10] amounted to 33.

With PXGLDT (X^y (4-aminomethyl-Phe), macrocycle of formula (I)) [Compound No. 165], in test [8], the half-inhibitory concentration (IC50) stood at 2920 nM.

Consider PXVLDT (X^y Tyr(OAllyl); X^z dVal, macrocycle of formula (I)) [Compound No. 166], for which the IC50 in test [8] is 1380 nM.

Regarding PXSLDT (X^y Tyr(OAllyl); X^z dSer, macrocycle of formula (I)) [Compound No. 167], in test [8], the IC50 was found to be 2000 nM.
